The text below walks through data of publication PMC10661864.

For the experiment, the target named is AAV-DJ capsid proteins VP2 and VP3 (capsid shell) (adeno-associated virus, AAV-DJ (engineered capsid)). As to the kind of experiment: co-sedimentation.

Substance “AAV-DJ capsid protein VP1 (wild type) (natural protein)” showed a VP1 copies per 60-mer capsid (VP1 copies per 60-mer capsid) of 3.
